Changes are numbered by the printed parent chain. Each block holds one binder with its values, some of them ahead of it.
How the values were obtained:
[1] = target: T1, CD123 (Homo sapiens (Human), UniProt P26951 19-305, limits assumed); assay: ELISA, format not described; design: unit not given here
T1 construct: also called CD123-Signal
T1 sequence: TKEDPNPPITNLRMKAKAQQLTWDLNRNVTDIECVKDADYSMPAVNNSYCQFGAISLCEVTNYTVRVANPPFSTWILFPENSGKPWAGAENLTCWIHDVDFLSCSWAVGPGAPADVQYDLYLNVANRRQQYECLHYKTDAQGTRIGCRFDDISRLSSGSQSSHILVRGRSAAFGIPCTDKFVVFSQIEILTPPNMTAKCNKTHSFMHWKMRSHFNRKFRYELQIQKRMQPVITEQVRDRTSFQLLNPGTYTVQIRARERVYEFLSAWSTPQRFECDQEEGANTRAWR

[2] = target: T2, P26 (human, UniProt P02771 381-609, limits assumed); assay: ELISA, format not described; design: unit not given here
T2 construct: also called AFP p26
T2 sequence: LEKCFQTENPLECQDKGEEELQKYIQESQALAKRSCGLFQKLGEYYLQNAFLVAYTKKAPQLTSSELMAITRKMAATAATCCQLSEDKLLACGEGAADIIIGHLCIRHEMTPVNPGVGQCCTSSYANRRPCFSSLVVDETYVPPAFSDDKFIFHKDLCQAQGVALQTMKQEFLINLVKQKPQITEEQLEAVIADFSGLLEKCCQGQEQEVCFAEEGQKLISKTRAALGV

ELISA_avg [1]: 10.6
B1: D domain SEQ ID NO: 660 (designed binder)
chain: MGSWYEFEQRLGAIEERLWALGGSEAELAAFEDIIAYFEYQLQSYKGKGNPEVEALDEEAWAIDDELWAYRHN

ELISA_avg [1]: 3.1
B2: D domain SEQ ID NO: 662 (designed binder)
chain: MGSWFEFPYRLEAIEERLYALGGSEAELAQFEQFIAWFEMDLQDYKGKGNPEVEALWFEANAIVEELDAYRHN

ELISA_avg [1]: 10
B3: D domain SEQ ID NO: 664 (designed binder)
chain: MGSWVEFWDRLDAIEERLWALGGSEAELAEFEFMIAMFEQHLQEYKGKGNPEVEALIPEAGAIDKELTAYRHN

ELISA_avg [1]: 3.3
B4: D domain SEQ ID NO: 667 (designed binder)
chain: MGSWHEFIWRLDAIEERLWALGGSEAELAWFETEIATFEAQLQDYKGKGNPEVEALEWEAIAIAWELDAYRHN

ELISA_avg [1]: 3.4
B5: D domain SEQ ID NO: 669 (designed binder)
chain: MGSWFEFQWRLEAIEDRLWALGGSEAELAEFETIIAGFEEQLQVYKGKGNPEVEALEEEAMAIQTELHAYRHN

ELISA_avg [2]: 8.6
B6: D domain SEQ ID NO: 982 (designed binder)
chain: MGSWVVFKSSLAQIKILLEALGGSEAELAIFEVKIAHFEQELQEYKGKGNPEVEALRKEAAAIRDELQAYRHN

ELISA_avg [2]: 15.6
B7: D domain SEQ ID NO: 983 (designed binder)
chain: B6 chain with V5D, V6Q, S9N, Q13S, I16R, L17V, Q40H, E41F, E44Q

ELISA_avg [2]: 25.6
B8: D domain SEQ ID NO: 981 (designed binder)
chain: MGSWHSFKQDLAYIKYLLEALGGSEAELAQFEELIAFFEYYLQTYKGKGNPEVEALRKEAAAIRDELQAYRHN

ELISA_avg [1]: 4
B9: D domain SEQ ID NO: 663 (designed binder)
chain: MGSWVEFYDRLEAIEIRLWALGGSEAELADFESFIAHFEDDLQAYKGKGNPEVEALMDEANAIVFELDAYRHN

ELISA_avg [1]: 4.3
B10: D domain SEQ ID NO: 665 (designed binder)
chain: MGSWDEFDARLWAIEERLWALGGSEAELAEFEFMIAAFEDVLQEYKGKGNPEVEALMGEANAIVMELDAYRHN

ELISA_avg [2]: 20.6
B11: D domain SEQ ID NO: 980 (designed binder)
chain: MGSWKNFKLELALIKSKLEALGGSEAELAQFEADIAFFEWSLQWYKGKGNPEVEALRKEAAAIRDELQAYRHN

ELISA_avg [1]: 4.6
B12: D domain SEQ ID NO: 671 (designed binder)
chain: MGSWWEFEDRLWAIDRRLMALGGSEAELAVFEQMIAHFEQILQVYKGKGNPEVEALHFEAHAIGMELAAYRHN

ELISA_avg [1]: 3.6
B13: D domain SEQ ID NO: 666 (designed binder)
chain: MGSWYEFWRRLDAIEERLWALGGSEAELAMFETDIAGFEWMLQLYKGKGNPEVEALEHEAWAINSELDAYRHN

ELISA_avg [1]: 4.7
B14: D domain SEQ ID NO: 661 (designed binder)
chain: MGSWWEFEQRLDAIETRLWALGGSEAELAYFEHIIADFEDELQIYKGKGNPEVEALGWEAFAIDGELTAYRHN

ELISA_avg [1]: 4.4
B15: D domain SEQ ID NO: 670 (designed binder)
chain: MGSWWEFEDRLWAIEQRLDALGGSEAELAVFENSIAKFEDMLQVYKGKGNPEVEALHEEADAIIWELYAYRHN

ELISA_avg [2]: 24.1
B16: D domain SEQ ID NO: 984 (designed binder)
chain: MGSWNNFKSSLASIKQVLEALGGSEAELAVFELQIAHFERELQYYKGKGNPEVEALRKEAAAIRDELQAYRHN

ELISA_avg [1]: 3.1
B17: D domain SEQ ID NO: 672 (designed binder)
chain: MGSWWEFLDRLEAIEYRLQALGGSEAELAVFEWEIAMFEDHLQGYKGKGNPEVEALHSEAHAIISELSAYRHN

ELISA_avg [1]: 3.7
B18: D domain SEQ ID NO: 668 (designed binder)
chain: MGSWYEFYWRLEAIEERLWALGGSEAELAEFEKAIATFEDQLQTYKGKGNPEVEALETEALAIHAELEAYRHN

— patent publication US20250026849A1 (ARCELLX, published 2025)
